Test results: article doi:10.1101/2023.02.27.530324
“And” between values parts separate entries of the source, which are not always exact repeats. Equal entries are not always repeated.

Columns and labels:
[1] = target: Enhygromyxa salina luciferase LuxA (Enhygromyxa salina); experiment: SEC-MALS
[2] = target: Enhygromyxa salina luciferase LuxA (Enhygromyxa salina); experiment: SAXS

- stoichiometry N [1]: 2 and 4
- percent of the protein as dimers [2]: 82%
- percent of the protein as tetramers [2]: 18%
- stoichiometry N [2]: 2 and 4
Substance: Enhygromyxa salina luciferase LuxA (enzyme)
